For test [1], the target named is Flag-Plk1(K82M) (UniProt P53350). Briefly: pull-down from mixed HeLa lysates, anti-Flag blot (FIG. 3D).
The target in test [2] is Plk1 PBD (residues 326-603), purified recombinant (UniProt P53350). The test can be described thus: ITC, 25 C. For orientation: ITC needs no label: the signal is the heat of the interaction.
Test [3] has the same target. The test can be described thus: ITC (Table 1, not given).
Test [4] concerns the target Plk1 (endogenous, in mitotic HeLa cell lysates) (UniProt P53350). Briefly: pull-down from mitotic HeLa lysate with bead-immobilised peptide (FIG. 1A).
The target in test [5] is PBD of human Plk2 (residues 373 to 685) (human) (UniProt Q9NYY3). Briefly: ITC.
The target is the same in test [6]. Briefly: ITC; no saturable binding.

From patent publication US20120065146A1 come the findings set out here.

One may read the Kd as the free concentration of one partner at which half of the binding sites on the other are occupied at equilibrium, for simple one-to-one binding.

Sequence of Plk1 PBD (residues 326-603), purified recombinant (P53350 326-603 limits assumed): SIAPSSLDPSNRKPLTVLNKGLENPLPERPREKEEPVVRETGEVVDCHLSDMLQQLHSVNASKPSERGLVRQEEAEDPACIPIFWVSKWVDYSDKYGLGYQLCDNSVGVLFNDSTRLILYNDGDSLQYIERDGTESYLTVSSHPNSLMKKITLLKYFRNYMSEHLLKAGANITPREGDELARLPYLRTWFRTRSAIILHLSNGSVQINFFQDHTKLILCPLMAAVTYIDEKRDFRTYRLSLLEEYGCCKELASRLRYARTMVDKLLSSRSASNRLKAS
Sequence of Flag-Plk1(K82M) (P53350 whole entry K82M, the tested form may be a part): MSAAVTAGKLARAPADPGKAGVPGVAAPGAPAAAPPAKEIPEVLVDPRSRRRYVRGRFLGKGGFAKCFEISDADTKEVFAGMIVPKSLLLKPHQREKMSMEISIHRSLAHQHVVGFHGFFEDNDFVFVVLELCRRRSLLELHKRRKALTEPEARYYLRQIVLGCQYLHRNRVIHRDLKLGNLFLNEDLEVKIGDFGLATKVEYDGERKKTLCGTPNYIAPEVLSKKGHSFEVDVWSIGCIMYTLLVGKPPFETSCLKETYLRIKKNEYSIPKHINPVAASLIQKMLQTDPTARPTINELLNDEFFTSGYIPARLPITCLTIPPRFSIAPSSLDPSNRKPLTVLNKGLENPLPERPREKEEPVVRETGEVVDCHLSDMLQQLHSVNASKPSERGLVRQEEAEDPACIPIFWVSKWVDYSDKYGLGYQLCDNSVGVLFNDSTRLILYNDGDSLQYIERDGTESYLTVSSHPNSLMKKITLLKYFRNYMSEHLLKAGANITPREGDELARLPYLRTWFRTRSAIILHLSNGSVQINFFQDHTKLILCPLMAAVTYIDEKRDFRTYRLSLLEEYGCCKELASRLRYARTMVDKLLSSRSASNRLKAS
Sequence of PBD of human Plk2 (residues 373 to 685) (human) (Q9NYY3 373-685 limits assumed): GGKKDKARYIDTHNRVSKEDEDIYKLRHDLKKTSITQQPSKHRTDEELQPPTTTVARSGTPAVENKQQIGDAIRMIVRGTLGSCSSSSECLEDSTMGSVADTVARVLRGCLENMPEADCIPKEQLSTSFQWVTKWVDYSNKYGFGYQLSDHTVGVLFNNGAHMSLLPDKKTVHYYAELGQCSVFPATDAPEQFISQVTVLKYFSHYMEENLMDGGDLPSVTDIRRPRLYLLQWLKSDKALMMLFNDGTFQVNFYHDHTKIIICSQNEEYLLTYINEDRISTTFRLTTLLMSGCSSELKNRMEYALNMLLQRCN
Sequence of Plk1 (endogenous, in mitotic HeLa cell lysates) (P53350 2-603 limits assumed): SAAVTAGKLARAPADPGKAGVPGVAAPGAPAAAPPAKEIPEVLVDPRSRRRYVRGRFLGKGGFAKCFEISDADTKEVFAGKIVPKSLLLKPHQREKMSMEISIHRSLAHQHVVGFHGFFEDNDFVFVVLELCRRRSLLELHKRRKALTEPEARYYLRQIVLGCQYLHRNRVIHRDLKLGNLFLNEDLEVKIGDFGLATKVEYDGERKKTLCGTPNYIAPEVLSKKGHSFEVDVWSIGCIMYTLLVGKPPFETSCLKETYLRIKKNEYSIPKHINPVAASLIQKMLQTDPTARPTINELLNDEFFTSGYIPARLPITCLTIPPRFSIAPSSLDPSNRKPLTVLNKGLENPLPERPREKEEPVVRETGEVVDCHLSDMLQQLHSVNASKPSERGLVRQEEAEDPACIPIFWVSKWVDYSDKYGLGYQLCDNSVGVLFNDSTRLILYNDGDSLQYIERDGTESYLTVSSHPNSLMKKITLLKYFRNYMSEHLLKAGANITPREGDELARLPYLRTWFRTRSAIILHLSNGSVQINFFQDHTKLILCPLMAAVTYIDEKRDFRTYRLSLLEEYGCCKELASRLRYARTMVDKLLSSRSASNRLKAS

Regarding “PLHSpT with Leu-3 mutated to Ala (peptide)”, the fold decrease in binding against PLHSpT in test [1] came to 3 fold.

In test [1], PPHSpT (peptide) yielded a fold decrease in binding against PLHSpT of 20 fold.

Turning to LHSpTA (peptide), the Kd in test [2] was found to be 450 nM.

As for LHSpT (peptide), in test [3], the fold weaker binding than PLHSpT worked out at 50 fold. The substance further gave a fold decrease in binding against PLHSpT in test [4] of 7 fold.

Regarding PLQSpT (peptide), the initial heats of interaction in test [5] was determined as 1.1 kcal/mol.

The substance MQSpTPL (peptide) yielded an initial heats of interaction in test [6] of -1.68 kcal/mol.
